# Measurements taken from publication PMC12090751 (Journal of Virology, 2025).
# B1: Nb10 with Twin-Strep-tag (VHH)
# VHH: QVQLQESGGGSVQAGGSLRLSCSASEYTRSMAWFRQVPGKEREGVAAIDTGNGNTYYPTVDGRFIISRGNAKNSVDLEMNSLTPDDTAIYYCAATQGPLWPTLGTQFSTESYNYWGQGTLVTVSS
# Legend:
# [1] = biological target: HA1 F1 (aa 11-329) displayed on yeast as Aga2 fusion (Influenza A virus H5, Re8 vaccine …, UniProt Q9Q0U6, strain); experiment: immunostaining of cells or tissue; details: one partner purified
# [2] = biological target: HA1 fragment F7 (aa 50-271) displayed on yeast as Aga2 fusion (Influenza A virus H5, Re8 vaccine …, UniProt Q9Q0U6, strain); experiment: immunostaining of cells or tissue; details: one partner purified
binder,measurement,setting,value
B1,binding result,[1],binds
same,binding result,[2],binds
